Km data for one substance are collected here from PMC12955871, “Structure‐Guided Engineering of a Promiscuous O‐Methyltransferase for a SAM Regeneration Biocatalysis Platform of Methylated Pharmaceuticals” (Advanced Science, 2025).

Experiment in all cases: HPLC product formation, Michaelis-Menten fit
Common to all, as to format: biochemical, Selaginella moellendorffii

The subject of data set [1] is O=c1c(O)c(-c2ccc(O)c(O)c2)oc2cc(O)cc(O)c12. The note with it: 1.6 mM SAM, pH 8.0, 37 °C.
The subject of another data set is CC(=O)c1ccc(O)c(O)c1O. The note with it: 1.6 mM SAM, pH 8.0, 37 °C, no added SAH, crystal structure is the SAH ternary complex.
In another data set the test system is O=c1ccc2cc3ccoc3c(O)c2o1. The note with it: 1.6 mM SAM, pH 8.0, 37 °C.

On to SmOMT (Selaginella moellendorffii), for which the results for the Km (in data set [1]; in the data set with CC(=O)c1ccc(O)c(O)c1O; with O=c1ccc2cc3ccoc3c(O)c2o1) were 585.1 µM, 51.7 µM and 225.4 µM, respectively.
